Assay results from the supplement of paper PMC10065799, “High-throughput profiling of sequence recognition by tyrosine kinases and SH2 domains using bacterial peptide display” (eLife, 2023).

Experiments:
[1] = test system: AncSZ; experiment: phosphorylation enrichment, bacterial display (enrichment ratio); higher = better substrate or ligand; peptides without Tyr show the background
[2] = molecular target: EPHB1 (UniProt P54762); experiment: as above
[3] = molecular target: EPHB2 (UniProt P29323); experiment: as above
[4] = molecular target: FGFR1 (UniProt P11362); experiment: as above
[5] = molecular target: FGFR3 (UniProt P22607); experiment: as above
[6] = test system: Fer (mouse); experiment: as above
[7] = molecular target: Fes (UniProt P07332); experiment: as above
[8] = molecular target: Fyn (UniProt P06241); experiment: as above
[9] = molecular target: Hck (UniProt P08631); experiment: as above
[10] = molecular target: Jak2 (UniProt O60674); experiment: as above
[11] = molecular target: MERTK (UniProt Q12866); experiment: as above
[12] = test system: c-Abl (mouse); experiment: as above
[13] = test system: c-Src; experiment: as above
[14] = molecular target: Grb2 SH2 (UniProt P62993); experiment: SH2 binding enrichment of the phosphorylated peptide, bacterial display (enrichment ratio); higher = better substrate or ligand; peptides without Tyr show the background
[15] = molecular target: SHP2-C SH2; experiment: as above
[16] = molecular target: c-Src SH2; experiment: as above
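Throughout, for SH2 binding enrichment of the phosphorylated peptide, bacterial display: peptide library displayed on the E. coli surface as eCPX fusions, selected cells deep-sequenced, score is each peptide's frequency after selection divided by its frequency in the input.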
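Throughout, for phosphorylation enrichment, bacterial display: 11-residue human phosphosite peptides and single-mutation variants displayed on the E. coli surface, counted by deep sequencing, each peptide's frequency after selection divided by its frequency in the unselected input library; frequency after pTyr selection over input frequency; kinase dosed for 20-30% of maximal phosphorylation in three min.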

Chain of Hck (P08631 whole entry, looked up): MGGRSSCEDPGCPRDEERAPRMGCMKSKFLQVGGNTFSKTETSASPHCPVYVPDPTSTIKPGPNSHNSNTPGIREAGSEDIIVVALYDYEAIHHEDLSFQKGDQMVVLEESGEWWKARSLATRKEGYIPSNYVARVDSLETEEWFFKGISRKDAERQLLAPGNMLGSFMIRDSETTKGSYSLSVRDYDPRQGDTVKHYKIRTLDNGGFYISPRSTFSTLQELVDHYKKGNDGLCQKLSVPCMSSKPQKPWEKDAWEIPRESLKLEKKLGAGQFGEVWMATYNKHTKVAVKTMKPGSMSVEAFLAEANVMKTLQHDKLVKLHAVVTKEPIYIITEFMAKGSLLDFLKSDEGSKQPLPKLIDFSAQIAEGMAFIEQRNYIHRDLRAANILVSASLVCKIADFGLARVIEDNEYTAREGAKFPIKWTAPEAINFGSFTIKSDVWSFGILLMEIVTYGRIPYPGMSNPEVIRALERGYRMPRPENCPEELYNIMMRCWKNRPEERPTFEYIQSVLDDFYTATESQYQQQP
Chain of MERTK (Q12866 whole entry, looked up): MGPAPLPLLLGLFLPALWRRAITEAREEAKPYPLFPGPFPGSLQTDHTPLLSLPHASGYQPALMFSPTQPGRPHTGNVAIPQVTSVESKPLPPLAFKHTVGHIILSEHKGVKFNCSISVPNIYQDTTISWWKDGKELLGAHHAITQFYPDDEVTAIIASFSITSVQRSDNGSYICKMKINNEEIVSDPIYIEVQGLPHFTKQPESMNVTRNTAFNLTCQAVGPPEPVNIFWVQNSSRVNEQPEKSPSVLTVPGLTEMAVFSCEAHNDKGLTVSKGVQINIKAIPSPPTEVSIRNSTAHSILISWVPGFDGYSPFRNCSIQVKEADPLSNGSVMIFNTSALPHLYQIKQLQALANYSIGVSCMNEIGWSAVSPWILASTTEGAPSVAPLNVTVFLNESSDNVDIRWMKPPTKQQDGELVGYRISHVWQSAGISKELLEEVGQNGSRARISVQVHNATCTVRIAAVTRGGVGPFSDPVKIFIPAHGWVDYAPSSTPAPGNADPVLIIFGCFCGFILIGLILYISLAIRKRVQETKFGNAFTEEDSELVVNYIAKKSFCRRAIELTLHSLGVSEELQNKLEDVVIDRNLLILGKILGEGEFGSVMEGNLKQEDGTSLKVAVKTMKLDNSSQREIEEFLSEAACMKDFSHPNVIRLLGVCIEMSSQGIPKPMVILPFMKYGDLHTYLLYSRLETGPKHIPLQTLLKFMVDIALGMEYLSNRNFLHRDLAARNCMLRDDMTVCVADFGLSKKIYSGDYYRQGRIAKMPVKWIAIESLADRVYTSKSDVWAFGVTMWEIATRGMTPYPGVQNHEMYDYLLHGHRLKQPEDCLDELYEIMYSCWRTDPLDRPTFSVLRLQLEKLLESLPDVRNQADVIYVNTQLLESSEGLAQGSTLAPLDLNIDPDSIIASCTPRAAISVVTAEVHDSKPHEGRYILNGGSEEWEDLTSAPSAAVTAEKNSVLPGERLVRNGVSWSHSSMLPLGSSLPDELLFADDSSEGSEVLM
Chain of Fyn (P06241 whole entry, looked up): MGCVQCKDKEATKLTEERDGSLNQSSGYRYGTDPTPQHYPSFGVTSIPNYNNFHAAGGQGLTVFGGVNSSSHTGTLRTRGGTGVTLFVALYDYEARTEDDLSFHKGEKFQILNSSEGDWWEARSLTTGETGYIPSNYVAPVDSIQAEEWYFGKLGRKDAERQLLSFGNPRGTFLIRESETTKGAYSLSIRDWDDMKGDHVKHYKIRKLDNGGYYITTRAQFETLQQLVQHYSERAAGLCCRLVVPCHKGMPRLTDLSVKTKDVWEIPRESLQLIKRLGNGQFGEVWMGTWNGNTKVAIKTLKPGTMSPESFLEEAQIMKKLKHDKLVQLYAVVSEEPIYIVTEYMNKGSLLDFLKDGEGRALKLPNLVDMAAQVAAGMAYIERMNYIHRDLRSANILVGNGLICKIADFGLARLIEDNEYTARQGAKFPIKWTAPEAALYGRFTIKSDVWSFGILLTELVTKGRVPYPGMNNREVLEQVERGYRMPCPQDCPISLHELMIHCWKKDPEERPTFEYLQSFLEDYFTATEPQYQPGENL
Chain of FGFR1 (P11362 whole entry, looked up): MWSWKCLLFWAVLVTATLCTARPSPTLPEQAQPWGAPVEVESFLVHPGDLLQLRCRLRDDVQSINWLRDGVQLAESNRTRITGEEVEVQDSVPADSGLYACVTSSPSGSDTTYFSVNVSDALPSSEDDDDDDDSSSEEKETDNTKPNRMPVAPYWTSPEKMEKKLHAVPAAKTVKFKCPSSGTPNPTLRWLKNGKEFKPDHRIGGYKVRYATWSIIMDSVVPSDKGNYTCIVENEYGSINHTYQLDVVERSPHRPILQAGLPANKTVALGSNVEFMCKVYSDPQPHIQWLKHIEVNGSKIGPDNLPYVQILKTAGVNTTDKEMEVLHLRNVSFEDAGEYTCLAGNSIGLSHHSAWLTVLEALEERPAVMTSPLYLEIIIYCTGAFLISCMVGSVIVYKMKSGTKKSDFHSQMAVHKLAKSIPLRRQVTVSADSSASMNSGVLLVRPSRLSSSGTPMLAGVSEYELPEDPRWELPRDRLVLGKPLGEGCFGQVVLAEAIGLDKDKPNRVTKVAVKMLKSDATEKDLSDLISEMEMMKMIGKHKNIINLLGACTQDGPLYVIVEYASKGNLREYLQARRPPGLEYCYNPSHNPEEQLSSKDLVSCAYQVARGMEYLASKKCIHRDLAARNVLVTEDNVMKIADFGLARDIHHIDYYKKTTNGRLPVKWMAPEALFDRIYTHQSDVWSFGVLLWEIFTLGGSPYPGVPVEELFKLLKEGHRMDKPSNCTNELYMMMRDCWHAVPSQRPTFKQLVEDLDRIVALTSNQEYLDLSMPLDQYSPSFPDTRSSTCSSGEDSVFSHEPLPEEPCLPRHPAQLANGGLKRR
Chain of FGFR3 (P22607 whole entry, looked up): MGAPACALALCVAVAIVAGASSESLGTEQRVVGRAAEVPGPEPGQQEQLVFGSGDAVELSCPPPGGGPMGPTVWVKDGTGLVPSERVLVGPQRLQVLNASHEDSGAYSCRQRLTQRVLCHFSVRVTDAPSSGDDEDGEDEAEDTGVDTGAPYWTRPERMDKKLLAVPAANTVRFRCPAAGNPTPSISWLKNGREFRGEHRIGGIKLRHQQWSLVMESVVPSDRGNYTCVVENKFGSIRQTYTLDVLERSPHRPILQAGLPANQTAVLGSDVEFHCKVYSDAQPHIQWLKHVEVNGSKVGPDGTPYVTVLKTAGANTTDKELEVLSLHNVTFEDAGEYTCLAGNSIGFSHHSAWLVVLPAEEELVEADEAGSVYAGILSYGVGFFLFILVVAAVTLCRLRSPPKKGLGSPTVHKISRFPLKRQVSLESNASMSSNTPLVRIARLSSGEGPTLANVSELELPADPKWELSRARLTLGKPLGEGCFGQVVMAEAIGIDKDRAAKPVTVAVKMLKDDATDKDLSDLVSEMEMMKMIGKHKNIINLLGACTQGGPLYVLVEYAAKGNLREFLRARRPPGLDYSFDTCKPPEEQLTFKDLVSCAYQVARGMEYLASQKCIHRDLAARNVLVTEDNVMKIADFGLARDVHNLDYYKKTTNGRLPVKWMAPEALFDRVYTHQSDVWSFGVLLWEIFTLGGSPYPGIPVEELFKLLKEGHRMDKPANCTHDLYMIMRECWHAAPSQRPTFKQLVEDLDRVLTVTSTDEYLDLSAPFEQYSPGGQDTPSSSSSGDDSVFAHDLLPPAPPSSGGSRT
Chain of Jak2 (O60674 whole entry, looked up): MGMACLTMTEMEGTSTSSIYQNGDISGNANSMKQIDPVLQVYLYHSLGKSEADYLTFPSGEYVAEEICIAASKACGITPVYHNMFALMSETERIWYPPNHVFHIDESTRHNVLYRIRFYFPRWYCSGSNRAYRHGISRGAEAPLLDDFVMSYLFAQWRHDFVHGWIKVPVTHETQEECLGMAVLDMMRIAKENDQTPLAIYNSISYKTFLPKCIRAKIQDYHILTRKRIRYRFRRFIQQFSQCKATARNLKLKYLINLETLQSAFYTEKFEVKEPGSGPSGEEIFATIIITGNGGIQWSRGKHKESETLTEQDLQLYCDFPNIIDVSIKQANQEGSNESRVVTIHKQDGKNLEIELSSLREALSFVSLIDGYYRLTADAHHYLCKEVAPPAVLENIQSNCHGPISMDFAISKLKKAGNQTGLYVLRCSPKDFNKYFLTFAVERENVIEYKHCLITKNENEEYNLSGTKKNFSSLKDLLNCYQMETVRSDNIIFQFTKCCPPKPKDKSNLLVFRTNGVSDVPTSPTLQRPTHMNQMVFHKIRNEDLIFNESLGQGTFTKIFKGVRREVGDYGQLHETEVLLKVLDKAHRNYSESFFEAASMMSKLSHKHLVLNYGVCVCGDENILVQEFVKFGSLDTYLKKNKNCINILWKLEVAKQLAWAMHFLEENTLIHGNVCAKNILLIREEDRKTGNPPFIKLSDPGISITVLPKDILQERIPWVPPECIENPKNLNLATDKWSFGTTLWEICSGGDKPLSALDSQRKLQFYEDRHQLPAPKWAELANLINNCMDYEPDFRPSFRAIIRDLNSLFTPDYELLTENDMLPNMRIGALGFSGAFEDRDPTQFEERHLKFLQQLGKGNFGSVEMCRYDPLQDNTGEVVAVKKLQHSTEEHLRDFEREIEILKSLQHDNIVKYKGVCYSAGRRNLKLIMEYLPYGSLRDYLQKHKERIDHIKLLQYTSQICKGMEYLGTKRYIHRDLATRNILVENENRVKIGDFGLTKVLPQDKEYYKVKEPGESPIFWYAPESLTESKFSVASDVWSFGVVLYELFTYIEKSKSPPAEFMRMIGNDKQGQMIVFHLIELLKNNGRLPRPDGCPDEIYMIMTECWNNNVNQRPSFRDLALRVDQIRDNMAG

Row | Sequence | SH2 binding enrichment [14] | SH2 binding enrichment [15] | SH2 binding enrichment [16] | phosphorylation enrichment [1] | phosphorylation enrichment [2] | phosphorylation enrichment [3] | phosphorylation enrichment [4] | phosphorylation enrichment [5] | phosphorylation enrichment [6] | phosphorylation enrichment [7] | phosphorylation enrichment [8] | phosphorylation enrichment [9] | phosphorylation enrichment [10] | phosphorylation enrichment [11] | phosphorylation enrichment [12] | phosphorylation enrichment [13]
1 | ANKNVYEVEPT [MEGF10_Y1075_R1072K] | 0.821 | 0.941 | 1.59 | 0.823 | 0.516 | 0.492 | 0.383 | 0.7 | 0.36 | 0.938 | 4.42 | 0.798 | 0.848 | 1.04 | 0.6 | 2.9
2 | AQVDTYCRHNF [HLA-DRB1_Y107_A103Q_YF] | 1.06 | 0.834 | 0.621 | 0.676 | 0.369 | 0.479 | 0.668 | 0.472 | 0.628 | 0.959 | 0.433 | 0.446 | 0.673 | 0.528 | 0.59 | 0.434
3 | ASENVYVNIAH [CTSC_Y150] | 6.93 | 5.86 | 2.4 | 0.881 | 1.92 | 0.924 | 3.4 | 2.05 | 3.79 | 0.827 | 1.99 | 1.94 | 0.986 | 0.826 | 0.8 | 2.21
4 | ASRKFYAMKIL [AKT3_Y174_G171R_YF] | 0.817 | 0.679 | 0.543 | 0.725 | 0.459 | 0.428 | 0.578 | 0.518 | 0.362 | 0.617 | 0.45 | 0.417 | 0.7 | 0.441 | 0.441 | 0.464
5 | ASTDFNKRGDF [PDHA1_Y243_Y243N_YF] | 0.705 | 0.706 | 0.612 | 0.511 | 0.297 | 0.341 | 0.373 | 0.378 | 0.347 | 0.585 | 0.365 | 0.462 | 0.53 | 0.418 | 0.521 | 0.44
6 | ATFRGYDSDNP [MMUT_Y146_H143Y_YF] | 1.01 | 0.718 | 0.572 | 0.904 | 0.424 | 0.513 | 0.571 | 0.531 | 0.553 | 0.896 | 0.51 | 0.528 | 0.811 | 0.373 | 0.666 | 0.425
7 | ATHSGYRLNDF [CLDN14_Y233_YF] | 1.04 | 0.542 | 0.421 | 0.587 | 0.472 | 0.514 | 0.322 | 0.538 | 0.361 | 0.601 | 0.419 | 0.391 | 0.558 | 0.42 | 0.906 | 0.453
8 | ATYRGYDSDNP [MMUT_Y146_H143Y] | 0.862 | 0.562 | 0.526 | 0.742 | 0.427 | 0.431 | 0.453 | 0.543 | 0.409 | 0.751 | 0.528 | 0.444 | 0.658 | 0.365 | 0.476 | 0.626
9 | AVEDQYYRVDC [FHL1_Y207_C209R] | 0.949 | 0.92 | 0.724 | 3.59 | 0.831 | 0.701 | 8.7 | 6.95 | 0.718 | 1.46 | 0.982 | 0.908 | 1.87 | 0.622 | 0.844 | 1.6
10 | CEAMEYQESKQ [BTK_Y511_L512Q] | 0.843 | 0.557 | 0.437 | 1.57 | 0.76 | 0.557 | 0.723 | 1.08 | 0.609 | 1.48 | 0.63 | 0.705 | 1.19 | 0.589 | 0.765 | 0.629
11 | CEDGNYSPEIS [PTDSS1_Y424_T423N] | 1.01 | 0.761 | 0.747 | 1.18 | 0.612 | 0.871 | 0.643 | 0.637 | 0.461 | 1.06 | 0.458 | 0.668 | 0.975 | 0.486 | 0.785 | 0.618
12 | CEETFYTMKVN [MASP2_Y401] | 0.842 | 0.788 | 0.522 | 1.48 | 0.766 | 0.625 | 0.546 | 0.935 | 0.738 | 1.4 | 1.04 | 0.756 | 1.51 | 0.529 | 0.9 | 1.41
13 | CENNRYGMGTS [PDHA1_Y227] | 0.77 | 0.6 | 0.44 | 0.991 | 0.686 | 0.606 | 0.548 | 0.726 | 0.538 | 1.36 | 0.518 | 0.555 | 0.999 | 0.397 | 0.715 | 0.517
14 | CHRQLYHKCTH [F12_Y58_Y53C] | 1.53 | 1.3 | 1.5 | 0.497 | 0.447 | 0.461 | 0.494 | 0.576 | 0.491 | 0.796 | 0.402 | 0.471 | 0.667 | 0.543 | 0.599 | 0.457
15 | CLSHCYFSQIR [MCM3AP_Y873_L870S] | 1.22 | 1.15 | 1.23 | 0.727 | 0.41 | 0.497 | 0.573 | 0.607 | 0.388 | 0.758 | 0.354 | 0.363 | 0.623 | 0.485 | 0.484 | 0.432
16 | CRIELYRVVES [IGFBP1_Y181] | 0.819 | 0.653 | 0.538 | 1.2 | 0.989 | 0.68 | 0.545 | 0.887 | 0.537 | 1.29 | 0.476 | 0.574 | 1.11 | 0.46 | 0.759 | 0.437
17 | CRWKRYQCSHD [GDPD5_Y30_R32C] | 0.656 | 0.583 | 0.494 | 0.559 | 0.458 | 0.493 | 0.488 | 0.562 | 0.425 | 0.666 | 0.52 | 0.529 | 0.612 | 0.384 | 0.41 | 0.448
18 | CSPLLYKVIMS [OR8D4_Y132_R133K] | 0.882 | 0.635 | 0.488 | 1.06 | 0.693 | 0.648 | 0.518 | 0.819 | 0.611 | 1.21 | 0.507 | 0.566 | 0.989 | 0.6 | 0.955 | 0.445
19 | CTLTHYKSAVK [ASNS_Y555_R550C] | 0.942 | 0.682 | 0.585 | 0.807 | 0.564 | 0.431 | 0.514 | 0.529 | 0.51 | 0.749 | 0.387 | 0.518 | 0.689 | 0.428 | 0.529 | 0.408
20 | CYVYYYSYLLK [PTEN_Y178_R173C] | 0.864 | 0.543 | 0.68 | 1.5 | 1.15 | 0.792 | 1.8 | 1.79 | 0.669 | 1.81 | 0.734 | 0.949 | 1.53 | 1.17 | 1.66 | 1.47

More lines, main results first:

Row | SH2 binding enrichment [14] | SH2 binding enrichment [15] | SH2 binding enrichment [16] | Sequence | phosphorylation enrichment [1] | phosphorylation enrichment [2] | phosphorylation enrichment [3] | phosphorylation enrichment [4] | phosphorylation enrichment [5] | phosphorylation enrichment [6] | phosphorylation enrichment [7] | phosphorylation enrichment [8] | phosphorylation enrichment [9] | phosphorylation enrichment [10] | phosphorylation enrichment [11] | phosphorylation enrichment [12] | phosphorylation enrichment [13]
21 | 0.681 | 0.52 | 0.441 | APGNAYGDAGY [SYP_Y250_D248N] | 0.731 | 0.515 | 0.451 | 0.428 | 0.512 | 0.452 | 0.77 | 0.418 | 0.474 | 0.851 | 0.423 | 0.607 | 0.497
22 | 0.716 | 0.671 | 0.501 | APRKVYDTQDD [ZFPL1_Y215_R218Q] | 0.993 | 0.692 | 0.685 | 0.549 | 0.653 | 0.67 | 1.09 | 0.495 | 0.586 | 0.808 | 0.466 | 0.766 | 0.479
23 | 0.664 | 0.702 | 0.505 | ARLDEYIAIAK [RCOR3_Y46_K42R] | 0.649 | 0.442 | 0.51 | 0.446 | 0.562 | 0.428 | 0.621 | 0.391 | 0.447 | 0.683 | 0.598 | 0.516 | 0.458
24 | 1.2 | 1.17 | 0.984 | CQAHGYFCQLI [STK11_Y156] | 0.873 | 0.413 | 0.546 | 0.479 | 0.609 | 0.402 | 0.836 | 0.405 | 0.436 | 0.751 | 0.407 | 0.514 | 0.428
25 | 1.03 | 0.892 | 2.53 | CQKRKYIEIDS [SDAD1_Y580_S575C] | 0.657 | 0.513 | 0.505 | 0.55 | 0.6 | 0.431 | 0.814 | 0.485 | 0.48 | 0.616 | 0.38 | 0.446 | 0.479
26 | 1.2 | 2.73 | 6.03 | CTSIHYNYMCN [TP53_Y234_T231S] | 0.842 | 0.99 | 0.63 | 0.67 | 0.591 | 0.676 | 0.805 | 0.42 | 0.514 | 0.733 | 0.448 | 0.535 | 0.5
27 | 1.05 | 1.16 | 0.866 | CTTIHKNYMCN [TP53_Y234_Y234K] | 0.733 | 0.515 | 0.503 | 0.499 | 0.56 | 0.406 | 0.792 | 0.395 | 0.409 | 0.702 | 0.484 | 0.603 | 0.404
28 | 0.924 | 0.914 | 0.988 | CTTIHSNFMCN [TP53_Y234_Y234S_YF] | 0.695 | 0.448 | 0.555 | 0.508 | 0.55 | 0.429 | 0.832 | 0.416 | 0.43 | 0.729 | 0.405 | 0.507 | 0.454
29 | 1.74 | 1.85 | 3.31 | CTTIHYNFMCD [TP53_Y234_N239D_YF] | 0.985 | 0.545 | 0.499 | 0.399 | 0.674 | 0.49 | 1.11 | 0.442 | 0.481 | 1.03 | 0.424 | 0.768 | 0.538
30 | 1.73 | 1.92 | 1.75 | CTTIHYNFMCH [TP53_Y234_N239H_YF] | 0.866 | 0.558 | 0.547 | 0.507 | 0.552 | 0.478 | 0.97 | 0.533 | 0.441 | 0.75 | 0.444 | 0.543 | 0.471
31 | 0.851 | 0.835 | 0.743 | CTTIHYNFMSN [TP53_Y234_C238S_YF] | 1.12 | 0.621 | 0.58 | 0.561 | 0.745 | 0.562 | 1.24 | 0.437 | 0.545 | 1.07 | 0.527 | 0.833 | 0.483
32 | 1.25 | 2.41 | 4.14 | CTTIHYNYMCN [TP53_Y234] | 0.853 | 0.762 | 0.696 | 0.539 | 0.692 | 0.557 | 0.903 | 0.453 | 0.482 | 0.661 | 0.485 | 0.471 | 0.469
33 | 1.37 | 2.31 | 4.11 | CTTIQYNYMCN [TP53_Y234_H233Q] | 0.927 | 0.614 | 0.671 | 0.556 | 0.692 | 0.445 | 0.955 | 0.555 | 0.551 | 0.751 | 0.482 | 0.493 | 0.441
